In PMC2835468 (Matrix biology : journal of the International Society for …, 2009):
Where two headings read alike, the source gives them in different places.

What was measured:
Experiment in all cases: enzyme inhibition kinetics
[1] = biological target: T1, ADAMTS5-5 (human ADAMTS-5, catalytic and disintegrin domain, C-terminal FLAG-tag) (human, UniProt Q9UNA0 262-566)
T1 sequence (looked up): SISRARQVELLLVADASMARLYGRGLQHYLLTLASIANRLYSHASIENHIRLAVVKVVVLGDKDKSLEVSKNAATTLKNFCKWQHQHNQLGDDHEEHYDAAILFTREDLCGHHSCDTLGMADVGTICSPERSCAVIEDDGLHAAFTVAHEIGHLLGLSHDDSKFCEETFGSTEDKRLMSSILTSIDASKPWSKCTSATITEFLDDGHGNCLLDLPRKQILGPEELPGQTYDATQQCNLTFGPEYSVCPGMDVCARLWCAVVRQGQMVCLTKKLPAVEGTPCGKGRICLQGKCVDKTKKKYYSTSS

[2] = biological target: T2, ADAMTS5-3 (human ADAMTS-5 deletion mutant, C-terminal FLAG-tag) (human, UniProt Q9UNA0 262-731)
T2 sequence (looked up): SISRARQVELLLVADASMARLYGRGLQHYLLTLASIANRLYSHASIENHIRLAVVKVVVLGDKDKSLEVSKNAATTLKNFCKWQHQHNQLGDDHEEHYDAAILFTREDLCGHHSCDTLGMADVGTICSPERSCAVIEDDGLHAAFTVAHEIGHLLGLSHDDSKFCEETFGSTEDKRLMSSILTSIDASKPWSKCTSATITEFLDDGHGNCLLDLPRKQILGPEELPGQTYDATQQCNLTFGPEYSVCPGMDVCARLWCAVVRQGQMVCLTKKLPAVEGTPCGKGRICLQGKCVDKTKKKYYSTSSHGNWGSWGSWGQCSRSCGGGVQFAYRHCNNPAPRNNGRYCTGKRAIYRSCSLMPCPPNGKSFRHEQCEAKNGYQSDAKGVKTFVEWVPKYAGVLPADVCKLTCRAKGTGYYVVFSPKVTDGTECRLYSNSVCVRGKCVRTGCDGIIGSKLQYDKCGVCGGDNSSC

[3] = biological target: T1, ADAMTS5-5 (human ADAMTS-5, catalytic …); remark: listed apart in the source
[4] = biological target: T3, ADAMTS5-2 (human ADAMTS-5 deletion mutant, C-terminal FLAG-tag) (human, UniProt Q9UNA0 262-874)
T3 sequence (looked up): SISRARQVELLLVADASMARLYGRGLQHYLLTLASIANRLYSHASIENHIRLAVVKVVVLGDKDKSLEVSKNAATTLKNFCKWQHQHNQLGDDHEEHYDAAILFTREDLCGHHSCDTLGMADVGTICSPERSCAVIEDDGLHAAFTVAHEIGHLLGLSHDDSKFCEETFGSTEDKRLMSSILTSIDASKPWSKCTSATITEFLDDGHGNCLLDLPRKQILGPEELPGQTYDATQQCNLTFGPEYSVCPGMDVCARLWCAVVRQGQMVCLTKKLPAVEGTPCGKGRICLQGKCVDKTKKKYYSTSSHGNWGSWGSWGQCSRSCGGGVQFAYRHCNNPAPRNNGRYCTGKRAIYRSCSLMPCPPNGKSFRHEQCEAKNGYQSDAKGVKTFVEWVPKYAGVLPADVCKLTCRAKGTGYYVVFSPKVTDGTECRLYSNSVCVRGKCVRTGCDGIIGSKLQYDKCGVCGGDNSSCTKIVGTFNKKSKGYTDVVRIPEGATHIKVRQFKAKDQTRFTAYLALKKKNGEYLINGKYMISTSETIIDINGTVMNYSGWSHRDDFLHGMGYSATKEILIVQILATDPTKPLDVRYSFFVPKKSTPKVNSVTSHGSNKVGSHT

Ki [1]: 1.89 nM
Ki [2]: 1 nM
Ki [3]: 1.17 nM
Ki [4]: 0.72 nM
B1: FLAG-tagged glycosylated human TIMP-3 (full-length tissue inhibitor of metalloproteinases 3), expressed in HEK293 (natural protein, UniProt P35625 24-211, looked up)
chain: CTCSPSHPQDAFCNSDIVIRAKVVGKKLVKEGPFGTLVYTIKQMKMYRGFTKMPHVQYIHTEASESLCGLKLEVNKYQYLLTGRVYDGKMYTGLCNFVERWDQLTLSQRKGLNYRYHLGCNCKIKSCYYLPCFVTSKNECLWTDMLSNFGYPGYQSKHYACIRQKGGYCSWYRGWAPPDKSIINATDP
modifications: glycosylated (only the 27 kDa glycosylated form remained after purification; single N-glycosylation site in the C-terminal domain)
